Laboratory results reported in the RNAGym collection of RNA variant scans (doi:10.1073/pnas.2313332121).

B1: TPR t1 (parent)
chain: GACCAAUCUGCCCUCAGAGCUCGAGAACAUCUUCGGAUGCAGAGGAGGCAGGCUUCGGUGGCGCGAUAGCGCCAACGUCCUCAACCUCCAAUGCAUCCCACCACAUGAUGAUGCCUGAAGAGCCUUGGUUUUUUG

Variants of: B1
Assay: polymerase ribozyme fitness, log enrichment relative to wild type (log ratio); higher = more active; in vitro selection for triplet polymerase activity
In short: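 One round of in vitro selection, in triplicate, was applied to PCR-built, transcribed mutant libraries of each subunit of a heterodimeric triplet polymerase ribozyme. The steps were annealing with a biotinylated primer, partner subunit and triplets, incubation frozen at −7 °C, gel excision of extended constructs, streptavidin-bead capture and RT-PCR. Fitness is the logarithm, base 2, of genotype enrichment over wild-type enrichment from inverse-variance-weighted replicate averages of Illumina-sequenced inputs and outputs, keeping genotypes with ≥10 input reads and ≥1 read per output.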

Point of comparison: GACCAAUCCGCCCUCAGAGCUCGAGAACAUCUUCGGAUGCAGAGGAGGCAGGCUUCGGUUGCGCGAUAGCGCCAACGUCCUUAACCUCCAAUGCACCCCACCACAUGAUGAUGCCUGAAGAGCCUUGGUUUUUUG [U9C G60U C82U U96C], “polymerase ribozyme fitness (log ratio)” value 0.305. Against it:
- GACCAAUCCGCCCUCAGAGCUCGAGAACAUCUUCGGAUGCAGAGGAGGCAGGCUUCGGUGGCACGAUAGCGCCCACGUCCUCAACCUCAAAUGCAUCCCACCAAAUGAUGACGCCUGAAGAGCCUUGGUUUUUUG [U9C G63A A74C C89A C104A U112C] — lower, -5.39
- GACCAAUCCGCCCUCAGAGCUCGAGAACAUCUUCGGAUGCAGAGGAGGCAGGCUUCGGUGGCGCGAUAUCGCCAACGGCCUCAACCUCCAAUGCAUCCCACCUCAUGAUGAUGCCUGAAGAGCCUUGGUUUUUUG [U9C G69U U78G A103U] — lower, -1.88
- GACCAAUCCGCCCUCAGAGCUCGAGAACAUCUUCGGAUGCAGAGGAGGCAGGCUUCGGUGGCGCGAUAUCGCCAACGUCCUCUACCUCCAAUGCAUCCCACCACAUGAUGAUGCCUGAAGAGCCUUGGUUUUUUG [U9C G69U A83U] — lower, -0.05
- GACCAAUCCGCCCUCAGAGCUCGAGAACAUCUUCGGAUGCAGAGGAGGCAGGCUUCGGUGGCGCGAUAUCGCCAACGUCCUCAACCUCCAAUGCAUCCCACCACAUGAUGAUGCCUGAAGAGCCUUGGUUUUUUG [U9C G69U] — higher, 1.23
- GACCAAUCCGCCCUCAGAGCUCGAGAACAUCUUCGGAUGCAGAGGAGGCAGGCUUCGGUGGCGCGAUAACGCCAACGUCCUCAACCUCCAAUGCAUCCCACCACAUGAUGAUGCCUGAAGAGCCUUGGUUUUUUG [U9C G69A] — lower, -2.17
- GACCAAUCCGCCCUCAGAGCUCGAGAACAUCUUCGGAUGCAGAGGAGGCAGGCUUCGGUUGCGCGAUAGCGCCAACGUCCUCAACCUCCAAUGCAUCCCACCACAUGAUGAUGCCUGAAGAGCCUUGGUUUUUUG [U9C G60U] — lower, 0.0949
- GACCAAUCCGCCCUCAGAGCUCGAGAACAUCUUCGGAUGCAGAGGAGGCAGGCUUCGGUAGCGCGAUAGCGCCAACGUCCUCAACCUCCAAUGCAUCCCACGACAUGAUCAUGCCUGAAGAGCCUUGUUUUUUUG [U9C G60A C102G G110C G128U] — lower, -7.66
- GACCAAUCCGCCCUCAGAGCUCGAGAACAUCUUCGGAUGCAGAGGAGGCAGGCUUCGGUGACGCGAUAGCGCCAACGUCCUCAACCUCUAAUGCAUCCCACCACCUGAUGAUGCCUGAAGAGCCUUGGUUUUUUG [U9C G61A C89U A105C] — lower, -3.08
- GACCAAUCCGCCCUCAGAGCUCGAGAACAUCUUCGGAUGCAGAGGAGGCAGGCUUCGCUGGCGCGAUAGCGCCAACGUCCUCAACCUCCAAUGCAUCCCACCACAUGAUGAUGACUGAAGAGCCUUUGUUUUUUG [U9C G58C C114A G127U] — lower, -3.7
- GACCAAUCCGCCCUCAGAGCUCGAGAACAUCUUCGGAUGCAGAGGAGGCAGGCUUCGGUGACGCGAUAGCGCCAACGUCCUCAACCUCCAAUGCAUCCCACCACAUGAUGAUGCCUGAAGAGCCUUGGUUUUUUG [U9C G61A] — within 0.2 log units, 0.487
- GACCAAUCCGCCCUCAGAGCUCGAGAACAUCUUCGGAUGCAGAGGAGGCAGGCUUCGGUGGCGCGAUAUCGCCAACGUCCUCAACCUCCAAUGCAUCCCACCACAUGAUGAUGCCUGAAGAGCCUUGGUGUUUUG [U9C G69U U130G] — within 0.2 log units, 0.198
- GACCAAUCCGCCCUCAGAGCUCGAGAACAUCUUCGGAUGCAGAGGAGGCAGGCUUCGGUGGCGCGAUAUCGGCAACGUCCUCAACCUCCAAUGCAUCCCACCACAUGAUGAUGCCUGAAGAGCCUUGGUUUUUUG [U9C G69U C72G] — lower, -1.2
- GACCAAUCCGCCCACAGAGCUCGAGAACAUCUUCGCAUGCAGAGGAGGCAGGCUUCGGUGGCGCGAUAGCGCCAACGUCCUCAACCUCCAAUGCAUCCCACCACAUGAUGAUGCCUGAAGAGCCUUGGUUUUUUG [U9C U14A G36C] — lower, -1.95
- GACCAAUCCGCCCUCAGAGCUCGAGAACAUCUUCGGAUGCAGAGGAGGCAGGCUUCGGUGGCGCGAUAGCGCCAACGUCCUCAACCUCCAAUGCAUCCCACCACAUUAUGAAGCCUGAGGAGCCUUGGUUUUUUG [U9C G107U U112A A119G] — lower, -4.69
- GACCAAUCCGCCCUCAGAGCUCGAGAACAUCUUCGGAUGCAGAGGAGGCAGGCUUCGGUAGCGCGAUAGCGCCAACGUCUUCAACCUCUAAUGCAUCCCACCACAUGAUGAUGCCUGAAGAGCCUUGGUUUUUUG [U9C G60A C80U C89U] — lower, -1.82
- GACCAAUCCGCCCUCAGAGCUCGAGAACAUCUUCGGAUGCAGAGGAGGCAGGCUUCGGUGGCCCGAUAGCGCCAACGUCCUCAACCUCCAAUGCAGACCACCACAUGAUGAUGCCUGAAGAGACUUGGUUUUUUG [U9C G63C U96G C97A C123A] — lower, -3.72
- GACCAAUCCGCCCGCAGAGCUCGAGAACAUCUUCGGAUGCAGAGGAGGCAGGCUUCGGUGGCGCGAUAGCGCCAACGUCGUCAACCUCCAAUGCAUCCCACCACAUGAUGAUGCCUGAAGAGCCUUGGUUUUUUG [U9C U14G C80G] — lower, -6.05
- GACCAAUCCGCCCUCAGAGCUCGAGAACAUCUUCGGAUGCAGAGGAGGCAGGCUGCGGUGGCGCGAUAACGCCAACGUCCUCAACCUCCAAUGCAUCCCACCACAUGAUGAUGCCUGAAGAGCCUUGGUUUUUUG [U9C U55G G69A] — lower, -1.8
- GACCAAUCCGCCCUCAGAGCUCGAGAACAUCUUCGGAUGCAGAGGAGGCAGGCUUCGGUGGCGCGAUAGCGCCAACGUCCUCAACCUCCAAUGCAUCCCACCACAUGAUGAUAGCUGAAGAGCCUUGGUUUUUUG [U9C G113A C114G] — lower, -0.741
- GACCAAUCCGCCCUCAGAGCUCGAGAACAUCUUCGGAUGCAGAGGAGGCAUGCUUCGGUGCCGCGAUAGCGCCAACGUCCUCAACCUCCAAUGCAUACCACCACAUGAUGAUGCCUGAAAAGCCUUGGUCUUUUG [U9C G51U G61C C97A G120A U130C] — lower, -4.88
